Tests used:
Assay in all cases: holdup assay
Set-up in all cases: key: below the threshold = too weak to quantify, mostly under pKd 3.1 to 4
Conditions in all cases: plain residues with an end cap or a label only (N-terminal biotin on a linker: (peg)3)
GIPC3, Q8TF64 = target: GIPC3, Q8TF64
MAGI1_4, Q96QZ7 = target: MAGI1_4, Q96QZ7
LMO7, Q8WWI1 = target: LMO7, Q8WWI1
Q8IUC4 = target: Q8IUC4

GIPC3, Q8TF64, sequence (Q8TF64 107-202): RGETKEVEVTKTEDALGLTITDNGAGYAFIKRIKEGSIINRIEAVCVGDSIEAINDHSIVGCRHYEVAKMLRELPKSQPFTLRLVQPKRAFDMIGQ
LMO7, Q8WWI1, sequence (Q8WWI1 1037-1138): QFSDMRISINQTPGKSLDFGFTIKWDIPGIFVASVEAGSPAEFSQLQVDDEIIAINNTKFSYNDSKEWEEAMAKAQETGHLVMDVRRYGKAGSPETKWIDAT
MAGI1_4, Q96QZ7, sequence (Q96QZ7 other isoform, or with tags, fused parts or gaps): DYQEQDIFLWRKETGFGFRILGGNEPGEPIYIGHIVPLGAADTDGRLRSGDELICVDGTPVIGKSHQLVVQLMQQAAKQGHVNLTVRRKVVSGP

Row | Binder | pKd (GIPC3, Q8TF64) | pKd (MAGI1_4, Q96QZ7) | pKd (LMO7, Q8WWI1) | pKd (Q8IUC4)
1 | RRRRSQSRESQC [HBV-HBc, P03193] | below the threshold | below the threshold |  | 
2 | RYEDTTLVEDTVL [WNV-NS5, Q9Q6P4] |  |  | below the threshold | 
3 | QQSMSSADSTQA [SARS-Cov2-N, P0DTC9] | below the threshold | below the threshold | below the threshold | below the threshold

— article PMC9482650, “Quantitative fragmentomics allow affinity mapping of interactomes” (Nature Communications, 2022)
